B1: mRNA-splicing (parent)
chain: AGUUGCUGCUGGGAGCUCCAGCACAGUGAAAUGGACAGAAGGGCAGAGCAA

Variants of: B1
Experiment: exon inclusion enrichment index; higher = more inclusion; WT1 exon 5 minigene, HEK293

Variant | exon inclusion enrichment index
AGUUGCUGCUGGGAGCUCCCACACAGUGAAAUGGACAGAAGGGCAGAGCAA [A20C G21A] | 1.19
AGUUGCUGCUGGGAGCUCCCCCACAGUGAAAUGGACAGAAGGGCAGAGCAA [A20C G21C] | 0.634
AGUUGCUGCUGGGAGCUCCCUCACAGUGAAAUGGACAGAAGGGCAGAGCAA [A20C G21U] | 1.49
AGUUGCUGCUGGGAGCUCCGGCACAGUGAAAUGGACAGAAGGGCAGAGCAA [A20G] | 1.58
AGUUGCUGCUGGGAGCUCCGACACAGUGAAAUGGACAGAAGGGCAGAGCAA [A20G G21A] | 2.89
AGUUGCUGCUGGGAGCUCCGCCACAGUGAAAUGGACAGAAGGGCAGAGCAA [A20G G21C] | 2.64
AGUUGCUGCUGGGAGCUCCGUCACAGUGAAAUGGACAGAAGGGCAGAGCAA [A20G G21U] | 2.37
AGUUGCUGCUGGGAGCUCCUGCACAGUGAAAUGGACAGAAGGGCAGAGCAA [A20U] | 2.62
AGUUGCUGCUGGGAGCUCCUACACAGUGAAAUGGACAGAAGGGCAGAGCAA [A20U G21A] | 1.45
AGUUGCUGCUGGGAGCUCCUCCACAGUGAAAUGGACAGAAGGGCAGAGCAA [A20U G21C] | 2.37
AGUUGCUGCUGGGAGCUCCUUCACAGUGAAAUGGACAGAAGGGCAGAGCAA [A20U G21U] | 1.91
AGUUGCUGCUGGGAGCUCCAACACAGUGAAAUGGACAGAAGGGCAGAGCAA [G21A] | 1.75
AGUUGCUGCUGGGAGCUCCAAAACAGUGAAAUGGACAGAAGGGCAGAGCAA [G21A C22A] | 1.17
AGUUGCUGCUGGGAGCUCCAAGACAGUGAAAUGGACAGAAGGGCAGAGCAA [G21A C22G] | 2.36
AGUUGCUGCUGGGAGCUCCAAUACAGUGAAAUGGACAGAAGGGCAGAGCAA [G21A C22U] | 1.19
AGUUGCUGCUGGGAGCUCCACCACAGUGAAAUGGACAGAAGGGCAGAGCAA [G21C] | 2.64
AGUUGCUGCUGGGAGCUCCACAACAGUGAAAUGGACAGAAGGGCAGAGCAA [G21C C22A] | 2.18
AGUUGCUGCUGGGAGCUCCACGACAGUGAAAUGGACAGAAGGGCAGAGCAA [G21C C22G] | 3.35
AGUUGCUGCUGGGAGCUCCACUACAGUGAAAUGGACAGAAGGGCAGAGCAA [G21C C22U] | 2.41
AGUUGCUGCUGGGAGCUCCAUCACAGUGAAAUGGACAGAAGGGCAGAGCAA [G21U] | 1.52
AGUUGCUGCUGGGAGCUCCAUAACAGUGAAAUGGACAGAAGGGCAGAGCAA [G21U C22A] | 1.05
AGUUGCUGCUGGGAGCUCCAUGACAGUGAAAUGGACAGAAGGGCAGAGCAA [G21U C22G] | 2.39
AGUUGCUGCUGGGAGCUCCAUUACAGUGAAAUGGACAGAAGGGCAGAGCAA [G21U C22U] | 0.89
AGUUGCUGCUGGGAGCUCCAGAACAGUGAAAUGGACAGAAGGGCAGAGCAA [C22A] | 2.09
AGUUGCUGCUGGGAGCUCCAGACCAGUGAAAUGGACAGAAGGGCAGAGCAA [C22A A23C] | 2.97
AGUUGCUGCUGGGAGCUCCAGAGCAGUGAAAUGGACAGAAGGGCAGAGCAA [C22A A23G] | 1.76

Variant | exon inclusion enrichment index
AGUUGCUGCUGGGAGCUCCAGAUCAGUGAAAUGGACAGAAGGGCAGAGCAA [C22A A23U] | 1.56
AGUUGCUGCUGGGAGCUCCAGGACAGUGAAAUGGACAGAAGGGCAGAGCAA [C22G] | 2.76
AGUUGCUGCUGGGAGCUCCAGGCCAGUGAAAUGGACAGAAGGGCAGAGCAA [C22G A23C] | 1.36
AGUUGCUGCUGGGAGCUCCAGGGCAGUGAAAUGGACAGAAGGGCAGAGCAA [C22G A23G] | 1.07
AGUUGCUGCUGGGAGCUCCAGGUCAGUGAAAUGGACAGAAGGGCAGAGCAA [C22G A23U] | 0.496
AGUUGCUGCUGGGAGCUCCAGUACAGUGAAAUGGACAGAAGGGCAGAGCAA [C22U] | 1.27
AGUUGCUGCUGGGAGCUCCAGUCCAGUGAAAUGGACAGAAGGGCAGAGCAA [C22U A23C] | 1.24
AGUUGCUGCUGGGAGCUCCAGUGCAGUGAAAUGGACAGAAGGGCAGAGCAA [C22U A23G] | 1.77
AGUUGCUGCUGGGAGCUCCAGUUCAGUGAAAUGGACAGAAGGGCAGAGCAA [C22U A23U] | 1.19
AGUUGCUGCUGGGAGCUCCAGCCCAGUGAAAUGGACAGAAGGGCAGAGCAA [A23C] | 0.646
AGUUGCUGCUGGGAGCUCCAGCCAAGUGAAAUGGACAGAAGGGCAGAGCAA [A23C C24A] | 0.968
AGUUGCUGCUGGGAGCUCCAGCCGAGUGAAAUGGACAGAAGGGCAGAGCAA [A23C C24G] | 2.29
AGUUGCUGCUGGGAGCUCCAGCCUAGUGAAAUGGACAGAAGGGCAGAGCAA [A23C C24U] | 0.256
AGUUGCUGCUGGGAGCUCCAGCGCAGUGAAAUGGACAGAAGGGCAGAGCAA [A23G] | 0.414
AGUUGCUGCUGGGAGCUCCAGCGAAGUGAAAUGGACAGAAGGGCAGAGCAA [A23G C24A] | 1.56
AGUUGCUGCUGGGAGCUCCAGCGGAGUGAAAUGGACAGAAGGGCAGAGCAA [A23G C24G] | 1.64
AGUUGCUGCUGGGAGCUCCAGCGUAGUGAAAUGGACAGAAGGGCAGAGCAA [A23G C24U] | 0.167
AGUUGCUGCUGGGAGCUCCAGCUCAGUGAAAUGGACAGAAGGGCAGAGCAA [A23U] | 0.475
AGUUGCUGCUGGGAGCUCCAGCUAAGUGAAAUGGACAGAAGGGCAGAGCAA [A23U C24A] | 0.217
AGUUGCUGCUGGGAGCUCCAGCUGAGUGAAAUGGACAGAAGGGCAGAGCAA [A23U C24G] | 0.96
AGUUGCUGCUGGGAGCUCCAGCUUAGUGAAAUGGACAGAAGGGCAGAGCAA [A23U C24U] | 0.078
AGUUGCUGCUGGGAGCUCCAGCAAAGUGAAAUGGACAGAAGGGCAGAGCAA [C24A] | 0.223
AGUUGCUGCUGGGAGCUCCAGCAACGUGAAAUGGACAGAAGGGCAGAGCAA [C24A A25C] | 0.728
AGUUGCUGCUGGGAGCUCCAGCAAGGUGAAAUGGACAGAAGGGCAGAGCAA [C24A A25G] | 0.315
AGUUGCUGCUGGGAGCUCCAGCAAUGUGAAAUGGACAGAAGGGCAGAGCAA [C24A A25U] | 0.16

From the RNAGym collection of RNA variant scans (doi:10.1101/gr.219683.116)
